Consider three molecules from patent publication US20090181444A1, “MODIFIED CARBOHYDRATE PROCESSING ENZYME” (priority 2002, published 2009).

Common to all, as to assay type: biochemical
Data set [1] is described as follows: Hydrolysis of 4-methylumbelliferyl-β-D-glucoside, initial rates. Conditions: 80° C., pH 6.5; for Km / kcat: 4-MUGlc. How it is done:
(§1) Parameters were determined by the method of initial rates. Activity was measured in time course assays of the hydrolysis of 4-methylumbelliferyl-β-D-glycosides (β-D-gluco, β-D-galacto, β-D-fuco, β-D-manno, β-D-xylo, β-D-glucurono) at 5-15 concentrations (0.001-1.5 mM) incubated at 80° C. in 50 mM sodium phosphate buffer, pH 6.5. Reactions were terminated at 2, 5, 10, 15 min by the addition of 100 μl of ice cold 1M NazCO3, pH 10 and analyzed (Labsystems Fluoroscan Ascent plate reader, […]). KM and kcat were derived by fitting the initial rates to hyperbolic Michaelis-Menten curves using GraFit 4 (Erithacus Software Ltd, Staines, UK).
(§2) Determination of the Michaelis-Menten parameters for the WT and mutant enzymes was performed at pH 6.5 at 80° C. for a broad range of representative, fluorophore-containing 4-methylumbelliferyl glycoside substrates, which allowed activities to be determined with a high degree of sensitivity (Table). Under these optimized assay conditions, the glucoside (Glc), galactoside (Gal) and fucoside (Fuc) substrates were hydrolysed well by SSβG-WT, but the xyloside (Xyl) substrate was hydrolysed relatively poorly (approx. 3% of turnover as determined by kcat compared with β-D-glucoside). […] In all cases the absolute D-stereospecificity and β-stereoselectivity of SSβG was maintained and no activity was detected towards L- or α-glycoside substrates.

Data set [2] can be described thus: Hydrolysis of 4-methylumbelliferyl-β-D-galactoside, initial rates. Conditions: 80° C., pH 6.5; for Km / kcat: 4-MUGal. As to the method:
as §1, §2

Data set [3] in a line: Hydrolysis of 4-methylumbelliferyl-β-D-fucoside, initial rates. Conditions: for Km / kcat: 4-MUFuc, 80° C., pH 6.5. How it is done: as §1, §2
A short description of data set [4]: Hydrolysis of 4-methylumbelliferyl-β-D-mannoside, initial rates. Conditions: for Km / kcat: 4-MUMan, 80° C., pH 6.5. As to the method:
as §1, §2

Data set [5] can be described thus: Hydrolysis of 4-methylumbelliferyl-β-D-xyloside, initial rates. As to conditions: for Km / kcat: 4-MUXyl, 80° C., pH 6.5. How it is done: as §1, §2
The nature of data set [6]: Hydrolysis of 4-methylumbelliferyl-β-D-glucuronide, initial rates. Conditions: for kcat / Km: 4-MUGlcA, 80° C. As to the method: as §1, §2
A short description of data set [7]: Parallel one-pot glycoside synthesis (transglycosylation to MeOH). Conditions: 8 h, 50° C., 1:9 MeOH:phosphate buffer pH 6.5. As to the method: Enzyme (WT, […] or E432C, 1 mg) was added to a mixed solution (1 mL) of para-nitrophenyl (pNP) β-D-manno-, galacto-, gluco- and xylo- pyranosides (0.03 mmol of each) in 1:9 MeOH:phosphate buffer (pH 6.5) and incubated at 50° C. for 45 min (WT), 4 h (WT), 8 h (W433C, E432C). After this time the solutions were extracted with EtOAc to remove para-nitrophenol and passed through short Sephadex and Celite:Graphite (1:1) columns to remove protein, pNP-glycoside and remaining para-nitrophenol. Solvent was removed and product mixtures were analysed by ^1H NMR and ESMS. Yields based on donor were calculated from integration of anomeric proton resonances in ^1H NMR (D2O, 500 MHz): α-Gal (δ 5.12, d, […]), α-Glc (δ 5.08, d, 3.8 Hz), α-Xyl (δ 5.04, d, J=3.4 Hz), α-Man (δ 5.03, d, J=1.8 Hz), β-Man (δ 4.75, s), β-Glc (δ 4.49, d, J=8.0 Hz), P-Gal (δ 4.45, d, 7.9 Hz), Me-β-Man (δ 4.44, s), β-Xyl (δ 4.42, d, J=7.8 Hz), Me-β-Glc (δ 4.23, d, J 8.1 Hz), Me-β-Xyl (δ 4.18, d, J=7.8 Hz), Me-β-Gal (δ 4.17, d, J=8.0 Hz).
Scheme 1: Parallel glycoside syntheses using SSβG-WT, -E432C and -W433C as catalysts. […] Such balanced libraries are not produced by SSβG-WT even under varying reaction times.

Data set [8] can be described thus: Substrate specificity compared across 4-methylumbelliferyl-β-D-glycosides. As to the method:
as §1, §2

B1: E432C: SSβG point mutant Glu-432→Cys (protein, listed as Sulfolobus solfataricus)
chain: MYSFPNSFRFGWSQAGFQSEMGTPGSEDPNTDWYKWVHDPENMAAGLVSGDLPENGPGYWGNYKTFHDNAQKMGLKIARLNVEWSRIFPNPLPRPQNFDESKQDVTEVEINENELKRLDEYANKDALNHYREIFKDLKSRGLYFILNMYHWPLPLWLHDPIRVRRGDFTGPSGWLSTRTVYEFARFSAYIAWKFDDLVDEYSTMNEPNVVGGLGYVGVKSGFPPGYLSFELSRRHMYNIIQAHARAYDGIKSVSKKPVGIIYANSSFQPLTDKDMEAVEMAENDNRWWFFDAIIRGEITRGNEKIVRDDLKGRLDWIGVNYYTRTVVKRTEKGYVSLGGYGHGCERNSVSLAGLPTSDFGWEFFPEGLYDVLTKYWNRYHLYMYVTENGIADDADYQRPYYLVSHVYQVHRAINSGADVRGYLHWSLADNYCWASGFSMRFGLLKVDYNTKRLYWRPSALVYREIATNGAITDEIEHLNSVPPVKPLRH
A word on the Km: it is the substrate concentration at which the rate is half of its maximum. Usually kcat stands for the number of substrate molecules converted per active site and unit of time at saturation. In the case of B1, in data set [1], the Km is 340 ± 70 µM, the kcat stood at 5.1 ± 0.5 s⁻¹ and the “Glc kcat/KM reduction relative to WT” value is listed as 200 fold. In data set [2], the Km was found to be 470 ± 140 µM, the kcat is 5.4 ± 0.8 s⁻¹ and the “Gal kcat/KM reduction relative to WT” value worked out at 130 fold. In addition, in data set [3], the Km amounted to 340 ± 40 µM and the kcat was found to be 18 ± 1 s⁻¹. In addition, in data set [4], the “kcat (Man) increase relative to WT” value was 2 fold, the Km turned out to be 900 ± 260 µM and the kcat is 2.8 ± 0.7 s⁻¹. Besides, in data set [5], the Km came out at 1260 ± 210 µM and the kcat stood at 2.8 ± 0.3 s⁻¹. In addition, in data set [6] (pH 6.5), the kcat entry is “NAD” and the “activity towards GlcA” value was “no detectable activity”. In addition, in data set [7], the “Yield of Products, product 1 (β-glycoside of Glc)” value was determined as 22%; the “Yield of Products, product 2 (β-glycoside of Gal)” value is listed as 24%; the “Yield of Products, product 3 (β-glycoside of Man)” value is 14%; the “Yield of Products, product 4 (β-glycoside of Xyl)” value came out at 17%. For the same molecule, in data set [7], the “Yield of Products, product 5” value stood at 7%; the “Yield of Products, product 6” value was 9%; the “Yield of Products, product 7” value came out at 3%; the “Yield of Products, product 8” value stood at 4%. For the same molecule, the “kcat values for Glc,Gal,Xyl,Man substrates” value in data set [8] is 2.8 to 5.4 s⁻¹.

B2: W433C: SSβG point mutant Trp-433→Cys (protein, listed as Sulfolobus solfataricus)
chain: MYSFPNSFRFGWSQAGFQSEMGTPGSEDPNTDWYKWVHDPENMAAGLVSGDLPENGPGYWGNYKTFHDNAQKMGLKIARLNVEWSRIFPNPLPRPQNFDESKQDVTEVEINENELKRLDEYANKDALNHYREIFKDLKSRGLYFILNMYHWPLPLWLHDPIRVRRGDFTGPSGWLSTRTVYEFARFSAYIAWKFDDLVDEYSTMNEPNVVGGLGYVGVKSGFPPGYLSFELSRRHMYNIIQAHARAYDGIKSVSKKPVGIIYANSSFQPLTDKDMEAVEMAENDNRWWFFDAIIRGEITRGNEKIVRDDLKGRLDWIGVNYYTRTVVKRTEKGYVSLGGYGHGCERNSVSLAGLPTSDFGWEFFPEGLYDVLTKYWNRYHLYMYVTENGIADDADYQRPYYLVSHVYQVHRAINSGADVRGYLHWSLADNYECASGFSMRFGLLKVDYNTKRLYWRPSALVYREIATNGAITDEIEHLNSVPPVKPLRH
For B2, in data set [1], the Km worked out at 1610 ± 350 µM, the kcat was determined as 33 ± 5 s⁻¹ and the “Glc kcat/KM reduction relative to WT” value is 140 fold. For the same molecule, in data set [2], the Km worked out at 2200 ± 1200 µM, the kcat was found to be 14 ± 6 s⁻¹ and the “Gal kcat/KM reduction relative to WT” value was determined as 230 fold. In data set [3], the Km was 410 ± 90 µM and the kcat was found to be 31 ± 3 s⁻¹. Also, in data set [4], the Km amounted to 180 ± 20 µM and the kcat is 0.92 ± 0.05 s⁻¹. For the same molecule, in data set [5], the “kcat (Xyl) lowering relative to WT” value is reported as 2.9 fold, the Km was 590 ± 190 µM and the kcat amounted to 1.5 ± 0.3 s⁻¹. Moreover, in data set [6] (pH 6.5), the Km entry is reported as “NAD^” and the kcat entry is recorded as “NAD”. Further, in data set [7], the “Yield of Products, product 1 (β-glycoside of Glc)” value is listed as 36%; the “Yield of Products, product 2 (β-glycoside of Gal)” value is 18%; the “Yield of Products, product 3 (β-glycoside of Man)” value was found to be 8%; the “Yield of Products, product 4 (β-glycoside of Xyl)” value turned out to be 13%. In data set [7], the “Yield of Products, product 5” value is given as 11%; the “Yield of Products, product 6” value is 6%; the “Yield of Products, product 7” value is given as 3%; the “Yield of Products, product 8” value amounted to 5%. Besides, in data set [8], the “broadening of Gal:Man stereospecificity relative to WT” value came to 25 fold and the “specificity range of kcat/KM for Glc:Gal:Xyl:Man” value is given as 8 fold.

B3: M439C: SSβG point mutant Met-439→Cys (protein)
chain: MYSFPNSFRFGWSQAGFQSEMGTPGSEDPNTDWYKWVHDPENMAAGLVSGDLPENGPGYWGNYKTFHDNAQKMGLKIARLNVEWSRIFPNPLPRPQNFDESKQDVTEVEINENELKRLDEYANKDALNHYREIFKDLKSRGLYFILNMYHWPLPLWLHDPIRVRRGDFTGPSGWLSTRTVYEFARFSAYIAWKFDDLVDEYSTMNEPNVVGGLGYVGVKSGFPPGYLSFELSRRHMYNIIQAHARAYDGIKSVSKKPVGIIYANSSFQPLTDKDMEAVEMAENDNRWWFFDAIIRGEITRGNEKIVRDDLKGRLDWIGVNYYTRTVVKRTEKGYVSLGGYGHGCERNSVSLAGLPTSDFGWEFFPEGLYDVLTKYWNRYHLYMYVTENGIADDADYQRPYYLVSHVYQVHRAINSGADVRGYLHWSLADNYEWASGFSCRFGLLKVDYNTKRLYWRPSALVYREIATNGAITDEIEHLNSVPPVKPLRH
In the case of B3, the Km came to 68 ± 28 µM in data set [1]; 83 ± 16 µM in data set [2]; 23 ± 5 µM in data set [3]; 42 ± 15 µM in data set [4]; 68 ± 7 µM in data set [5]; 1400 ± 600 µM in data set [6] (pH 6.5, read-out: Km). Further, the kcat was found to be 190 ± 40 s⁻¹ in data set [1]; 94 ± 11 s⁻¹ in data set [2]; 91 ± 8 s⁻¹ in data set [3]; 2.3 ± 0.4 s⁻¹ in data set [4]; 9.3 ± 0.2 s⁻¹ in data set [5]; 1.3 ± 0.4 s⁻¹ in data set [6] (pH 6.5). Moreover, the “kcat/KM for Fuc lower than WT” value in data set [3] is on record as 1.8 fold. In addition, the “kcat/KM for Xyl higher than WT” value in data set [5] came to 4.7 fold. Moreover, the “absolute increase in Xyl activity” value in data set [5] (relative to WT) was 5 fold. Further, the “kcat/KM for GlcA higher than WT” value in data set [6] was determined as 1.5 fold. Also, in data set [8] (relative to WT), the “increase in Xyl over Fuc specificity” value was determined as 10 fold.
